The supplement of paper PMC12636428

system: Saccharomyces cerevisiae; assay: transcriptional activation domain activity (GFP:mCherry ratio, weighted mean of sorted bins, harmonized to initial dataset scale) (arbitrary fluorescence ratio units); higher = stronger transcriptional activation; conditions: beta-estradiol 1 µM; induction time 4 h
How it was run: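 For this assay, yeast diploids with a GFP reporter carried barcoded protein tiles at URA3, each fused to an estradiol-inducible synthetic transcription factor. Induction was a 1:5 dilution into SC with 1 uM beta-estradiol for 4 hours at 30 °C, followed by sorting into 8 bins by GFP:mCherry ratio and barcode sequencing. Tiles under 50 reads were dropped, and activation activity was calculated as the read-weighted mean of bin median fluorescence, averaged across barcodes and linearly mapped onto the initial dataset scale.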

Sequence | transcriptional activation domain activity
FKDLLVEGFDNNRLIVAIPFVCKVLEQASKSRVFKPPNPWLMAILRLLVELYH | 51200
MLLIWLYALKTGFVLSAVVSFGFWYSISLFFMYFIGKPLFHDSFFLFFSSFFL | 57200
MYVLARVRMFSSGSRLLRLDRVRGYMLWLILLVVYVYLALTCISFRPPFFYHS | 71600
SHQEHVIAQLMNKVKSVSTTKPYVEYFQMPSKSVFITIVALCLYVILLKKTPS | 15500
EHFAGNNHVNRVVNFVQSCFTFYAPKMCKYYTEILQALFSQPTWWMVCCCGFW | 46200
KIHLVNLLQISVLFVHRFIFGLVPLFEITTCAFFPLLISLWHLDYILFYVVMF | 53800
MYWNYPGFIWPLGFPWFFFFFFFRSGSLLPRPCPVDTVFHFQFFFFFFFFFFF | 51300
NGGCDYVFSMYVLGAGLWLFIFFLPPIIFSIVCLCYLALIWAVSWVLLWCLVF | 49600
ARGTTTPPPAPSTGSPSAPAAASRSSTGRSSATASCRTARCARASGRSAPGAG | 42900
KLYSLGHILHSFIFVFSFFHFLISFLHSGFLCPRLFMFSSSLLFYYFLVGFFF | 27700
MVFSFLLDILAGILYYYLVLGSHILASCFDYRWFYFFFFFFVLFFSLLFSVFL | 61900
AVAAAVAAIAAVAAEIKTVPAQAQEQEQEQEQEQAQVQVQVQAQAQPQQQQQA | < 6570
LYLCLVILFKRCIIGGFKAGPRRHDQVTLMRYWFMEKLLPPGENLQGVASILG | 16200
CPVHTTLHVPHFLIWSSHILFFFLVFFFVFSLFPFPLVCLVAFFLVLSALPPS | 42700
SREGKGGGAGRGKGGEQGGGMGEGKQGGGGGEAERGSREGKQRGEAGGRGKEE | 44600
KRSRKHSSREDVGEEGEDRRSEHRERKKEKEREKDKEKDKDRSRSRHKRSRSD | 53600
MGVCGVFISFLAWGGCLVLLNVRLHLRGLIFSLSNLFYDTVHVTCIWFFLFRL | 65300
FAQRKSPFTQLLAFFLTRGCVIAGYQIILLIVPLLAGVSYTWVPLLFCLSRVY | 62100
FKLNTVTNLNEIDFTNIFTKSPHPHSGSTHPRQVFDQLDDCSSILFSPLTTNT | 67700
VLLILGLGNPLCSRPVKLFEWMIAALVFAVLICMTMIIVKVNVVWSQAFNGFV | 45600
SLSRIVGRGGAQINQIKEDTEVESLDVNQEGEGDSATVTLKGTKTAVAAAKKA | 21900

Sequence | transcriptional activation domain activity
FRNGPWWCLAHYIMRAMAVFLLAMSPQVLQVHTDLVLPVKKLIRWLQWMRQDD | 64200
MVMVKIPFLLAFVYLFLVLHSHVLVHSFRNFTSLLVFACLLGVGMWRCVWTQM | 58000
SPSRNAERPSPAAPAAMERGPDGRPRLKLAPRSAPRTETPSPAPVAPPAPVHV | 29400
GKFLTVLLALSVMGSVAATSVAIFSFNNIRSNVYSFYSISLNMQILMPVLVYV | 41200
RGAARCFCVYFFLSLWHFYENHIFFFCSLFFHSLLLCHFFFSFFCVALRLLAC | 33800
RIVIPIRLVLLVFVTMASYLLFAMIIYACQNEWLYPFLSWDQGPVAVLWYLLL | 42800
GEGERGSDGRQKEGARERGRRRETRKQNQKRGRGGRGGRGRGEGGAKSETQET | 17200
SLPFHCTLLLVVINLIAVVAILWTRFASKLLGSSVCAFLYIFVGTFTILIHVR | 20500
MDNKSSKSPGNIPKHRACDECRSRKLACSKEPDGCARCKRERIKCHYSPQKPM | 34700
DFWDYLIVSLVPSLCVFFVRYFMFMVLFIVVGYFIPLLMCYMSYSIIRYPLFH | 43400
MDGLFFFFFPFFFLFITLPTNFILFLIVGGSSSSLFFFFGFWFLVWFGLVYLC | 27600
FALFPEDPIILTIFGFFFSIPCFYYIVAKPQYISASRFVLLTYNLTCLYCYNL | 32600
MAAIDHDKVAKFVGGNSLDKATPGDVTDFVRKNGGHTVITKVLIANNGIAAVK | 45000
YHFALSYKRWINRVIIMIWCKLWWLRWCAFMQLFFRRNLRYNFWWRWIRVAGV | 56700
DGVKGWAVGVVVAGPFMAGLIKLIRWAGDSFVAYVVVFLFVFQLVAMTLYPTL | 19000
VLEQLNLINHFYQFSLKFFLDIFEYVLRQNPNLQNVTDHHARREILFNDIFLV | 33600
GEVTEAEANGEAPKPEGEAAAEASPKPRKKKSPRKKKAAAPAEGEAAATEATA | 19600
AVGLPNPHAHTLLQSLYYLRSITFSLLRLKMEQRLSLLIPSYLTIWKLDRKAL | 68400
GMIGFDPNVSLEKIYHGRFKDILHKGIQIADRTFTFLGFSHSSLRGHTCWFAA | 75600
GILRYCKIWLAWVQIHFGVHFFVLTIWYRMWNLHRLVVQQKLLSGWSYYLPII | 36800
IRDRFNHGPCKVYILFMNCTYLPMIPGLFRIIEILRYYLRLRWLRCCSAAGPD | 60300

Sequence | transcriptional activation domain activity
LLVTLMQVPDTDQVVLFNKVLSVIVLVMAHHHELGGPRFDQRPFLRLFSSILA | 43800
MVTISTDWFGWFVYLRFSGHLGVNCFYFIIRFFLFWVAFQLHVCIFSLPLVSC | 51400
PDLSIYMVDAFVHVLITAGLRDSAAVLHERIMSEFLDRILLILRAAVRLNKII | 62400
LRELHKSSFTNSLRQWVMSGVYQLDPFVRPYLRAYAIACLRIVFHILPHLTSM | 48200
APSIRYRLPFDSLLFVFCGTLLCTLIFLREALIPHFPCWVLLWGAYILLPLCF | 15900
PLEYFDIKALSALIVFDEFPNYIIGLLLQSYPELVHGTFMPYIECMLFTMNPL | 61800
SRLTHVLLCYRQSLLVTVYSHLLLLDQSSQVWWRWMSIFFTLIMWSIELLISS | 57600
SLWCLVIFPCSLVFLGLVGPVLSWFFLSFLFSWLIGRLVLYLILFLLFVTDWA | 22000
MFVHWAAVFCLFFFCLAIIHPYLPVAFFFCSIYYKPFFLRLPRFLFGFWFFFS | 47700
ILIIVFFYVHFLGVLIFLVGGYYHTKVAHGSYWIWPSFVFWAFDRFVRVVRLV | 48500
MTLTLHPCAQTQFLTAFYCIYCHLTWRCSLLILINMGLGLIQRYVFPLLTFLF | 43400
GNESDDESTEEEKEVKRKKKKKVAKKLPKKKAKKAAVKAKSKKSKKADSSDES | 31000
KKEKSPSEDEAEKPKSPKSPFAKLRATVKGKSPKTEKPAEEPKAEAAPEAKTE | 24100
KSKQKERERKRARAKANEKAKAEARKRKTKDGEKKEKRKQKEREKAKGKGKER | 55000
MGYQPLFLCFVLSSPCLLLFPVLHILQPASSFSLLCLELFVRWVTYLLLLFSS | 71800
MYYDKRSAMLQGLLLMGPRACGFHWSCILAILGLATLVSVDLVQLSYHLPRAV | 32700
AANKNAKRREARKKAAAAAGEGNEEDKGASAETKEDKSAEVKEKENVKPASEK | 29600
NSWLCGFQGIALMYLVLLLLCFGVLLIANLHFLSVYRSTWLQIHMTPMIVLSF | 57400
PAEGAEDAGEVKKKHRKRRRKRRGDAKDAAAEGGDEPENEDGEVGEGDNAAVS | 9150
KKGRRGRRRNRRGRKEGESEKGRKGGKGKGRKGEEQRRVRIKKGSRGTGEGEK | < 6570
YLEWLLLHHIHTIVGRRKDINWHIVCMDRWNIWYNTLRLSDTFALVGIIISIF | 58500

Sequence | transcriptional activation domain activity
MWCTRWYIPLLLLPIPTAPPYFLILFLFSLTLHARPCFYCILLLLTLFLSSCY | 58500
MLFSLYLFFYFLFFVCDGLPYFWFYKHTRFSVNYVSSSPPFCWSLFFLFFYFF | 62000
AIRRSFAHVFCLCCIMEFPTFILGLGSLYPSLRSNVFFALSFFATRIVLHLML | 65700
SKEKLSAVENSHAIKLEIILEGIGSIMLSHPNDMQLLSRVVRLLVRVAIQFRR | 56500
EREKKKGREKEEKGGKERRGKKGRGKEEGKKRRKRGRKERKEGRKGEEGKRGR | 33600
MKTPPPQLGFFVGVLVLYAFFFIFLFFYFLFYGDIHLKQEDIIYVWNTYWAIW | 20200
LYIVRLRFVHHFRINTAFVEACQLSIPPFVSVSLVSLAIAVFLNCVGHHFAAF | 39400
AEAGTSKTAAKAEATPVEGTSAPVEGKAQKKEKKEKKPPAEEAGAGKKKGGAA | 16100
RGDGMEERKGEKRGRKGGERGGRGEGGHRGRKGDTEGGRGTGEKRGGKGGKRG | 33500
GLCYCHSIKLRHLLIPMEKLYLMGLILVQCYNGVLHSMLFGARYEFLPLMLTS | 71000
REQQQRNDFPEGTHRMKVVAERWKTLSDDQREISFISSLLYAYVHVELRLRLG | 46500
SASASASGATASASASAAAGAGGKGGFGGKGGFGGGFGGKGQGGKGGKGGAAA | 34000
HSSTAFSGYIDDPFNLNEILPLPASDFKLNTVTNLNEIDFTNIFTKSPHPHSG | 136000
MLCRLCFFVFTRAVLLYLIGLFFNLFRLCLSLRFNIFVSFVFLDFCMSFPSTL | 40200
QYRYLTYSRWLVLLLYVFSWAFTVISMVLVTTNNANFVSCLLSILVCDVFYSG | 39300
PSIFFLLFICYFVICSIHVDLCYYDSLFNCLFFISSMFSHNYLFFCLCLCYHV | 64200
MTVTPVNGYGWSRANKIGWTVFYISLWGYSNCSYFFPLPLYFSYVFFFFPFYP | 42200
MVMMIVCVCVLPCFVYVLWFLCRFFIYLFYYCVHAWPRWHREGGLFSLFFFFF | 30000
AINYASMCKQYERAEYTQRLMIELDPVLRHSWSRRLATWRLTETWTHYLVLNI | 68900
WETIGTILYLFYVFTFLRLRFFLLLFYLYELTTMISLTIYIILYTLLFYFSCY | 41200
